According to publication PMC3315804 (Molecular Biology of the Cell, 2012):

B1: WT-eNOS-CFP, expressed in HEK cells (enzyme)
chain: MGNLKSVAQEPGPPCGLGLGLGLGLCGKQGPATPAPEPSRAPASLLPPAPEHSPPSSPLTQPPEGPKFPRVKNWEVGSITYDTLSAQAQQDGPCTPRRCLGSLVFPRKLQGRPSPGPPAPEQLLSQARDFINQYYSSIKRSGSQAHEQRLQEVEAEVAATGTYQLRESELVFGAKQAWRNAPRCVGRIQWGKLQVFDARDCRSAQEMFTYICNHIKYATNRGNLRSAITVFPQRCPGRGDFRIWNSQLVRYAGYRQQDGSVRGDPANVEITELCIQHGWTPGNGRFDVLPLLLQAPDDPPELFLLPPELVLEVPLEHPTLEWFAALGLRWYALPAVSNMLLEIGGLEFPAAPFSGWYMSTEIGTRNLCDPHRYNILEDVAVCMDLDTRTTSSLWKDKAAVEINVAVLHSYQLAKVTIVDHHAATASFMKHLENEQKARGGCPADWAWIVPPISGSLTPVFHQEMVNYFLSPAFRYQPDPWKGSAAKGTGITRKKTFKEVANAVKISASLMGTVMAKRVKATILYGSETGRAQSYAQQLGRLFRKAFDPRVLCMDEYDVVSLEHETLVLVVTSTFGNGDPPENGESFAAALMEMSGPYNSSPRPEQHKSYKIRFNSISCSDPLVSSWRRKRKESSNTDSAGALGTLRFCVFGLGSRAYPHFCAFARAVDTRLEELGGERLLQLGQGDELCGQEEAFRGWAQAAFQAACETFCVGEDAKAAARDIFSPKRSWKRQRYRLSAQAEGLQLLPGLIHVHRRKMFQATIRSVENLQSSKSTRATILVRLDTGGQEGLQYQPGDHIGVCPPNRPGLVEALLSRVEDPPAPTEPVAVEQLEKGSPGGPPPGWVRDPRLPPCTLRQALTFFLDITSPPSPQLLRLLSTLAEEPREQQELEALSQDPRRYEEWKWFRCPTLLEVLEQFPSVALPAPLLLTQLPLLQPRYYSVSSAPSTHPGEIHLTVAVLAYRTQDGLGPLHYGVCSTWLSQLKPGDPVPCFIRGAPSFRLPPDPSLPCILVGPGTGIAPFRGFWQERLHDIESKGLQPTPMTLVFGCRCSQLDHLYRDEVQNAQQRGVFGRVLTAFSREPDNPKTYVQDILRTELAAEVHRVLCLERGHMFVCGDVTMATNVLQTVQRILATEGDMELDEAGDVIGVLRDQQRYHEDIFGLTLRTQEVTSRIRTQSFSLQERQLRGAVPWAFDPPGSDTNSP

What was measured:
[1] = biological target: Y14D-Cav-1-YFP (phosphomimicking mutant) (human) (UniProt Q03135); assay: co-IP
[2] = biological target: T1, Y14D-Cav-1-YFP (phosphomimicking mutant) (human, UniProt Q03135 1-178, Y14D); assay: co-IP
T1 sequence: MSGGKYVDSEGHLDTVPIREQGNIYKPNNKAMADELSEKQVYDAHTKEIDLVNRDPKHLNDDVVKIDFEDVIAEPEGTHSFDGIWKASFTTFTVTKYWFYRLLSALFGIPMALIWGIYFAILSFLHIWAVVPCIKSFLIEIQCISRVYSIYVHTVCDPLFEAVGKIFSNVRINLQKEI

Row | Molecule | fold binding against WT-eNOS with WT-Cav-1 [1] | fold binding against WT-eNOS with WT-Cav-1 [2]
1 | eNOS-S1177D-CFP (phosphomimicking mutant) (from UniProt P29474-1 1-1203) (enzyme) | 4.2 fold | –
2 | B1 | – | 4.2 fold
